From the DeepSol protein solubility set come the findings set out here.

This series is described as follows: soluble on expression in E. coli; label from the status in PepcDB or PDB records.
Consider “MSLKARPTIAEVARRAGVSPATVSRVLNGTARVSPEKVRAVLQAVEELGYAPSPLAQGLATGRSYAVGILLSDFASPFFGPILEALTLELEATPYRPIAVPGHWSLVRELEALEFLKAHRVEALVLLGTALDGEALGELGIPVLAFGQRVEGPKAWSLCLDNQQAAYEATRYLIDRGHTRIVHISSHRGGMDVRDRLLGYRKAMREAGLEARVVYGDLEEEGGYRAAAEAFRRYPDTTAIFAANDQTAFGARLYLYEQGLRVPEDVSLVGFDDIALSAYQIPPLTTVRQPIQDIGIALGRALRAVLAGEVPTLPRLELRLVERASVREVREGHHHHHH”, for which the “soluble on expression in E. coli” value was “soluble”.
As to “MSLKDKFGREIRSLRISITNKCNLQCFYCHREGHDSNNDRYMTPEEIGIIAKTSTKFGVKKIKISGGEPLLRKDVCEIIENIKDERIKDISLTTNGILLENLAEKLKDAGLNRVNVSLDTLNPELYKKITKFGDVERVINGIKKAIDVSLTPLKVNFLAMSINIKDLPDIMEFCRDIGAILQIIEFIPLKEELKGYYYNISPIENEIKEKADKVITRNFMQNRKKYIVDGLEIEFVRPMDNSEFCMHCTRIRLTYDGYLKPCLLRDDNLVDVLTPLRKGENLEPYFIECINRREPYFKIKEGHHHHHH”, the “soluble on expression in E. coli” value is recorded as “soluble”.
The same measure for “MSLKEGKEFEYLFWVGSMGSYDNRSQKIAISFAKLLNHAGVSFAILGNKEKNSGDTPRRLGNEFLFQELAEKNISEFEKNDVKKIVTIDPHAYNLFKNEYPDFGFEGEVYHHTEVLAELVKNGKLRPQHPLHETITFHDSCYLGRYNEVYDPPREILKAIPGVQLVEMERSRETGMCCGAGGGLMWMEEETGNRINVARTEQALAVNPSVISSGCPYCLTMLGDGTKAKEAEDQVKTYDVVELLAQSVLGADLKMGEKQEGHHHHHH”: “not soluble”; for “MSLKEYTRPLEQGIDSDKNIFSVLEERVERTPDDNLVEYKNAQGEWAAFTAAEFKNKVVALAKGLIARGVMPGDSVSIIAHTCWQWTALDVAIMSIGALTVPVYETNSPAQVKMIFNDANVKMAFAEDDFQRDKIESVRDQCPDLGDVYVIGLGAIDTIIEYGRAVSDAEFLEREQAVKGSDLATIVYTSGSTGTPKGVELTHANFVFITYSGVNSMPDIAMKPNRRLLLFLPLAHVFARYMQFFCFAGNVSLGLSSNLKTILADFKAFKPTFILAVPRIFEKIYNAASQKAGAGFKGRVFADATQTACDWSHAQQSGGSIPLALNAKHALYNKLVYSSIMEVFGGHVEYAVSGGAPLDSSIAHFFNGVGLSLLEGYGMTETCAPSSVNPTEGYKIGTIGLPLQGVTMGVDEEGELCIKSPAVCAGYHNNPDVTKQQIVDGWLHTGDLGSIDDDGFVSIVGRKKDLIITAGGKNVSPCEMEASIMTSPVVSQCVMIGDRKPFIAAIISLDLAETNLWLESKGAEQVADLDEASKNPIVRAEVERAVNKANELASRAESIRKFEIVPDEFTEENGLVTPSMKARRQAVVEHYRTLIDKVIYVPRKPAAHAEEGHHHHHH”: “soluble”.
With “MSLKIADIQVRTEHFPLTRPYRIAFRSIEEIDNLIVEIRTADGLLGLGAASPERHVTGETLEACHAALDHDRLGWLMGRDIRTLPRLCRELAERLPAAPAARAALDMALHDLVAQCLGLPLVEILGRAHDSLPTSVTIGIKPVEETLAEAREHLALGFRVLKVKLCGDEEQDFERLRRLHETLAGRAVVRVDPNQSYDRDGLLRLDRLVQELGIEFIEQPFPAGRTDWLRALPKAIRRRIAADESLLGPADAFALAAPPAACGIFNIKLMKCGGLAPARRIATIAETAGIDLMWGCMDESRISIAAALHAALACPATRYLDLDGSFDLARDVAEGGFILEDGRLRVTERPGLGLVYPDEGHHHHHH” the entry was “soluble”; with “MSLKIAIVGGPTAVGKTDIMIEVCEEIGAEIISMDSRQIYRYMDIGTAKPTPEQRKRVLHHMIDIIDPDEYYNAFMYRKDSLRAMEDVLRRGKIPVYVGGTGLYADALVRGIFEGVPADENIRKELRELERREPGILRKMLEELDPEAATRIHPNDLKRTIRALEVYMKTGRRISELQKEAKGDDRFFIIVLTRERYELYERINKRVDKMIEMGLVDEVKRLLGMGYSKDLNSMKTIGYKEVIDYLEGKYDFDKMVHLIKRNTRHFARRQIIWFKRYKEAVWYNLTFEDVGEVKEKLKKLIVENFSVEGHHHHHH”, “soluble”.
Regarding “MSLKIGFFIMNIGSAGGTERVSINVANALAKQGYDVSFISIGGNKPFFQVDEKINIYAMNKLPYSLKKDYFSITKKLRELVKELQLDTLIVVDGAIMLFSALALVNLNIKHILWEHYSFNFTGNRLVRTLGKYLAVTTCDKIVTLTEAEKTLWQEKFKTNNIISIANPNTLLPKNKLAKLENKTILSVGHLFSYKGFDYLLKVWQVLAKKYPDWNLKIVGSGEEEENLKNLAKALDIEDSVNFIPRTNDVSFYYESSSIYCLPSQTEGLPLVVIEAMAFGLPIVAFNCSPGVKQLVEHKENGFLCEQNNIEEMVKGLDLLINNPELYLQMSDKSRLMSEDYGIEKIIEEWKGILEGHHHHHH”, the “soluble on expression in E. coli” value was “soluble”.
The same measure for “MSLKIKDIKVIFTEPDNIRLIIVKILTDQDGLYGVGCATFTQRPNPVKYAIEDYLKPFLIGKEVSNIEDIWQSSYVSSYWRNGPVLNNALSGVDQALWDIKGKMANMPLYDLFGGKTREAAAVYVHSSGDSNEEVGDKMQAFIEQGFHHIRVQVSTPGYSTYGNKSAKAGDKTLNNNDPKLGPIPVTKRVKDYSDGKLYAHPGGVFEPKPYLRSALSLFEYIRDRFGYGIEILHDVHERIPPILGVWFAKEVEKYQLFFLEDLFSPEDNEYFSMVRAQSSTPIAMGELYSSPHEIIPMIKNRLIDFIRIHISDIGGLTPAKKIAAMGEIFGVRTAWHGPGDTSPIGHAANLALDLSCYNFGIQEYSIFGENTKEVFPGCPIVKKGMMWSNDKPGLGIDIDEKLAKKFPFKEREYGGAWDTVRRADGSMVKEGHHHHHH”: “not soluble”; for “MSLKILICSDTHLGAGEKSHCLKDDCYLAFEEILQQANQEDVDLILHSGDFFDDQNPSKYCLTKTMELMRKYLMGKPKNSFDVAYTYEHNQEDNGFSMNQGIKYPMYVIHGNHDIPSGIEHVAGLDILQTAGLVNFIGKAEDISEIDNKTDQTILHLSPILLQKGTTRIALYGMSYKKNEEMNRLWASSQVQIDEPDGDVFKILLIHQDRILRNTLTTFPEELLKDRFNLIVFGHEHSSQVEEGTDVQIIQTGSSFPLSICEFEKAEKFIGLAHINGMKINMNKIALRNVREVFYEVVQMSQMIEGSANLEMVEHYIREEVQNFFDHVNTHSKTMLPLARIIIEYKSLGCIPNLRKMAFEFEKNIVNKGDCIKLKKKIQKREGHHHHHH”: “soluble”.
With “MSLKILIGEFAVGTDIEKSLIPEGAAMLKTLAESFVRVGHEVCYPSAGTEIGSGTALKSTADSFVQVIEREAKNCDAGLLIAPDGMLPELNRILAENTANLGCSPEAAARCADKLRCTEILKTAGINAPEIVREAEEGKKYVIKPRFGCGAEATYLVSGFENTGEFIASEYIEGEHLSVSLIAGNKPLPLTVNRQFIEFNEKKDGINPENIEVSGIKYNGSLTPYETPRRGELYETAVSAVKYLGCFGYVGVDIVLSEVPYVVDVNPRPTASIFGISRVMREEIGELLLTNRFGTLPDSVRVEGEYHFSKDMLGELFGKNEGHHHHHH” the entry was “soluble”; with “MSLKILLLVAISCLFVACSNDKEKQQNDVNLSTEASINQSDDMNFKLNLIDGGSISVKKENAVLNFNDEDKVTLFVFFTTWCTPCIAEIPHLNKLQEKYNNDFNIVGVLLEDKSNDEIQKFIEQHKISYKVANGENNYLLAKALGGVNGIPTMFLYNKHSKLINQYLGLIPEEMLEIDIQKAILEGGSHHHHHH”, “soluble”.
The same measure for “MSLKINRIVNEGFMKTMLAAYLLGNSTVDLREVAVPTPGINQVLIKMKSSGICGSDVHYIYHQHRATAAAPDKPLYQGFINGHEPCGQIVAMGQGCRHFKEGDRVLVYHISGCGFCPNCRRGFPISCTGKGKAAYGWQRDGGHAEYLLAEEKDLILLPDALSYEDGAFISCGVGTAYEGILRGEVSGSDNVLVVGLGPVGMMAMMLAKGRGAKRIIGVDMLPERLAMAKQLGGMDHGYLATTEGLPQIIAELTHGGADVALDCSGNAAGRLLALQSTADWGRVVYIGETGKVEFEVSADLMHHQRRIIGSWVTSLFHMEKCAHDLTDWKLWPRNAITHRFSLEQAGDAYVLMASGKCGKVVINFPDEGHHHHHH”: “not soluble”.
Turning to “MSLKIRSLHTDALKKLAVKCEDLFMAGQKDQLRFGVDSWSDFRLTSDKPCCEAGDAVYYTASYAKDPLNNYAVKICKSKAKESQQYYHSLAVRQSLAVHFNIQQDCGHFLAEVPNRLLPWEDPDDPEKDEDDMEETEEDAKGETDGKNPKPCSEAASSQKENQGVMSKKQRSHVVVITREVPCLTVADFVRDSLAQHGKSPDLYERQVCLLLLQLCSGLEHLKPYHVTHCDLRLENLLLVHYQPGGTAQGFGPAEPSPTSSYPTRLIVSNFSQAKQKSHLVDPEILRDQSRLAPEIITATQYKKCDEFQTGILIYEMLHLPNPFDENPELKEREYTRADLPRIPFRSPYSRGLQQLASCLLNPNPSERILISDAKGILQCLLWGPREDLFQTFTACPSLVQRNTLLQNWLDIKRTLLMIKFAEKSLDREGGISLEDWLCAQYLAFAEGHHHHHH”, the “soluble on expression in E. coli” value is “not soluble”.
The same measure for “MSLKISEVATPNFLLDLDQLEKNIDKIQQICTNNNKQLWPMLKTHKSTYIARLQKNAGASGFLVGTLDEGEALIKAGFEDIMLAYPYMGEVNINRIVTMASKINLICATDNIECAKAYSEAFSKSKIECKLLIIVDCGLHRFGVEPEKVVELATEISKLENIKIVGISSHPGQVYGCSSPEGVPDVCVQEDSSMEKAYKALTDNGFNIEIVASGSTPTVESEAACKTITAVRPGNYVYYDAIQIGLGCATEDMCALTVVCTVISKNSSGYYLIDCGSKCLGLDKGAHGNSSIVGYGRVCGHPELTIDSLSEEVGKIKVNGETDIKIGDRIRIIPNHSCSTANLTSNLLGFRGDTIEKVIEVDIRENSEGHHHHHH”: “soluble”; for “MSLKISKLKKNVVLKNGTIIDPFNNYEKKGDIHIENGKIKAVGKIPTPKSSEIIDCKNLNITHGFFDLHVHFREPGGEDKEDLNSGSLAALAGGFTGVCTMPNTNPPIDSPESIRYIIDRSEECPIYIYPIGSITKSQEGKELTEMGAMLSQGAVAFSDDGLPISDAGVMYNALDYSSMFDVPIINHAEDECLKQDSVMHEGEVSTHLGLPGSPDITESNMVFRDLELSIRAGARIHIPHVSSEKSVNHIKTMKKKSDRITAEVSPHHIFFCDEDLYSFDTNLKVAPPIRTKNDRKALIDALKNGIIDCIATDHAPHTIEEKEGTFDIAPFGMIGLESCFGAVNKVLTKDKKISHLELIKLLTVNPRKIMKLNQDLFKEGTNAEIAIYDPNIEWKFSLENIYSKSNNSPLFKEGHHHHHH”: “not soluble”.
“MSLKITKLEKKKRLYLMELDNGDKCYITEDTIVRFMLSRDKVISEEELKEIQDFAQFSYGKNLALYHLSFKARTEKEVREYLKKYDIDKNIVSQVIANLKEDKWINDGQYAYAIINTNQLSGDKGPYVLTQKLAQKGISKSTIEENLKEFDFSEVAQRVANKLLKKYEGKLPARALQDKIIQNLTNKGFSYSDAKIAFDDLDSQVDQETTQELIFKELDKQYTKYARKYEGYELKQRLTQVLARKGYDFSDIASALREYLEGHHHHHH”: the “soluble on expression in E. coli” value was “soluble”.
The same measure for “MSLKITLFGGAGFLGSHVCDKLSEAGHDVTVVDLRPSPYLRPDQTMITGNILDEELVARAVEGADMVFNYAGIADIGEANRRPVDTARINVLGNVIALEACRKAGVKRYVFASSLYVYGKSGGFYRCSKQACELYIENYQAMHGLDYTILRYGSLYGSRADIRNAINRFVAEALEKGAITYYGSPTALREYIHVEDAALCTVEVLKPEYANENIVLSGNQPMRVGDLFKMIGEMLGKDIEVVYQHDPNSGHYQITPYAFMPKVGKKMTPILTTDLGQGILRVMEDVHREMHPDMHDVGGYLVSKDEGHHHHHH”: “soluble”.
